Experiment [1] concerns the target protein phosphatase 1 (rabbit) (UniProt P62139).
Experiment [2] has the same target. The source holds these as a separate data set.

Chain of UniProt P62139 (P62139 whole entry): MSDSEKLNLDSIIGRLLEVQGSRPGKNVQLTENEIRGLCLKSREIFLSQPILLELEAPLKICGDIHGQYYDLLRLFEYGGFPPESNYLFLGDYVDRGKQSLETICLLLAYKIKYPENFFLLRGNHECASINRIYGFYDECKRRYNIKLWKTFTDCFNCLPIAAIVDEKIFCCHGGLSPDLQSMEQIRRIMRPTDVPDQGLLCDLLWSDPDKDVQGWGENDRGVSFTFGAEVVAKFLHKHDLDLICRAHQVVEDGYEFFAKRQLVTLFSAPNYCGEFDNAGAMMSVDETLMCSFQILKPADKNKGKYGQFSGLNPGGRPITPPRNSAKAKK

In turn, glutathione conjugate of MCLR (peptide) registered an IC50 of inhibition of PP1 activity (colorimetric protein phosphatase inhibition assay, p-nitrophenyl disodium orthophosphate, 25.0°C, pH 7.4) in experiment [1] of 86.6 μg/L. In addition, in experiment [2], the IC50 of inhibition of PP1 activity (inhibition curves, colorimetric protein phosphatase inhibition assay) came to 86.6 µM.

Consider glutathione conjugate of MCRR (peptide), for which, in experiment [1], the IC50 of inhibition of PP1 activity (colorimetric protein phosphatase inhibition assay, p-nitrophenyl disodium orthophosphate, 25.0°C, pH 7.4) is 98.7 μg/L. Also, the IC50 of inhibition of PP1 activity (inhibition curves, colorimetric protein phosphatase inhibition assay) in experiment [2] was 98.7 µM.

(Values after publication PMC5350311.)
